Test results from PMC8435816 (Synthetic and Systems Biotechnology, 2021).

Target: the molecule itself
Assay: negative-stain transmission electron microscopy

B1: T. maritima encapsulin with His6 insert with Strep-tag (TmEnc-STII) (natural protein, Thermotoga maritima)
chain: MEFLKRSFAPLTEKQWQEIDNRAREIFKTQLYGRKFVDVEGPGGGGGGHHHHHHGGGGGYGWEYAAHPLGEVEVLSDENEVVKWGLRKSLPLIELRATFTLDLWELDNLERGKPNVDLSSLEETVRKVAEFEDEVIFRGCEKSGVKGLLSFEERKIECGSTPKDLLEAIVRALSIFSKDGIEGPYTLVINTDRWINFLKEEAGHYPLEKRVEECLRGGKIITTPRIEDALVVSERGGDFKLILGQDLSIGYEDREKDAVRLFITETFTFQVVNPEALILLKF
Question: Does B1 bind?
Answer: Result: binds
